Measurements reported in the nanobody polyreactivity screen of Harvey et al. (2022).

Experiment: yeast display, Sf9 membrane polyspecificity reagent, FACS + sequencing; frameworks hold sequencing errors
How it was run: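 Galactose induction of a Saccharomyces cerevisiae BJ5465 synthetic nanobody display library ran 36–48 hours. The cells were then stained for 1 hour at 4 °C with 10% biotinylated, detergent-solubilized Sf9 membrane reagent, pulled down on streptavidin microbeads and FACS-sorted into low and high (top ~1%) gates on expression and reagent-binding fluorescence. Labels for polyreactivity follow the gate of origin.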

Sequence | polyreactivity (PSR sort gate)
QDQLVESGGGLVQPGGSLRLSCAASGTIIPRSAMGWYRQATGKERELVAAISQRGGSTFYADSVKWRFTISRDNAKNTVYLQMNRLKPEVTAVYYCAADPGVQRGHIDRMYYWGQGTQVTVSS | high polyreactivity
QVQLVESGGGLVQAGGSLRLSCAASGRIFSYYAMGWYRQAPGKERELVATIDRSGDPTSYADSVKGRFTISRDNAMNTVYLKMNSLKPEDTAVYYCAATSKRARYDSWGQGTQVTVSS | high polyreactivity
QVQLVESGGGLVQAGGSLRLSCAASGSIFVSYAMGWYRQAPGKDRELVAAITSAGTTYYADSVKGRFTISRDNAKNTVYLQMNSLNPEDTAVYYCNTDASFKRTRVSPETEYGYWGQGTQVTVSS | low polyreactivity
QVQHVESGGGLVQARGSLRLSCAASGSTIKHYGMGWYRHAPGKERELVAAITSGGRTYYADSVKGRFTISRDNAKNTVYLQMNSLKQDDSAGYYCAALRVQQVKSYYYWGQGTQVTVSS | high polyreactivity
QVQLVVSGGGLVQAGGSLRLRCAASGRTFVRYAMGWSRQAPGKERELVARITTRGTSTYYADSVKGRFTISRDNAKNTVYLLLNSLKPEDTAVYYCNKVRTFRDKSRYDYWGQGTQVTVSS | low polyreactivity
QVQLVESGGGLVQAGGSLRLSCAASGRTFSRNAMGWYRQAPGKEREFVASISRSGTSTYYADSVKGRFTISRDNAKNTVYLQMNSLKPEDTAVYYCAKTYASSQGYDYWGQGTQVTVSS | high polyreactivity
QVQLVESGGGLVQAGGSLRLSCAASGSTFRLNARGWYRQAPGKERELVASIRWSVGITYYADSVKGRFTISRDNAKNTVYLQMNSLKPEDTAVYYCATRDTTWRYYYWGQGTQVTVSS | high polyreactivity
QVQLVESGGGLVQAGGSLRLSCASSGLTSYSAMGWYRQAPGKERELGAAIDGSDGNTYYADSVKGRFTISRDNAMNTVYLQMKSLKPEDTAVYYCNAETVRYWWSWENDYWGQGTQVTVSS | high polyreactivity
QVQLVESGGGLVQAGGTLRLSCAASGYTLKWYTMGWYRQAPGKERELVATIRRGGGTYYADSVKGRFTISRDNAKNTVYLQMNSLKPVDTPVYYCAAEWSSVYNYDYWGQGTQVTVSS | low polyreactivity
QVQLVESGGGLVQAGGSLLLSCAASGGTFRVYAMGSYRQAPVKERELVAAITWRGGRTYYGDSVKGRFTISRDHAKNTVYLQMKRVKPEDTAVYFCAADRYGDLYDYWGQGTQVTVSS | high polyreactivity
QVQLQESGGGLLQECGSQRLSCAASGSISEGQDMGWYRRAPGKEREFVAGIAPGATTYYADSVKGRFTISRDNAKNTVYLQMNSLNPEDTAVYYCAARYVTESDHDYWGQVTQVTVSS | low polyreactivity
QVQLVESGGGLVQAGGSLRLSCGAYGRIFLFYDMGWYRQEPGKVRELVATISFRGGSTYYADSVKGRFTISRDNAKNTVYLQMNRLKPEDTAVYYCAKQNKRGYSTSAYYSWGQGTQVTVSS | low polyreactivity
QVQLVESGGGLVQAGGSLRLSCAASGSIFYPNAMRWYRQAPGKQRELVAVITGGATTYYADSVKGRFTISRDYAKNTVYLQRNSLNPEDTAVDYCAADSAENVYRGYDWGQGTQVTVSS | low polyreactivity
QVQLVESGGGLVHAGGSLRLSCASSGSIFIRNAMGWYRQAPGKERELVASISRSGASTRYADSVKGLFTISRDNAKNTVYLQMNSLNPEDTAVYYCNDVIRRYFVPSSYDYWGQGTQVTVSS | high polyreactivity
QVQLVESGGGLVQAGGSLRLTCAASGRTFDYNAMGWYIQAPGKERELVAAISQSGGRTYYADSVKGRFTISRDHAKNTVYLQMNSLKPEDTAVYYCAAEAYGNRDYWGQGTQVTVSS | low polyreactivity
QVQLVESGGGLVQAGGSLRLSCAASGRIFYRNAMGWYRQAAGKERELVAGITRGGSTNYADSVKGRFTISRDNAKNTDYLQMNSLKPEETAVYYCAKAIPAKFYSEAGYDYWGQGTQVTVSS | low polyreactivity
QVQLVESGGGLVQAGGSLRLSCAASGFNFRLYAMGWYRQAPGKERELVATITQRGGRTYYADSVKGRFTISLDNAHNTVYLQMNSLKPEDTAVYYCAATWTVTTGTKFDYWGQGTQVTVAS | high polyreactivity
QVQLVESGGGLVQAGGSLRLSCAASGSIFSQYAMGWYRQAPGKERELVDAITYGGGSTYYADSVKGRFTISRDNAKNTVYLQMNSLKPEDTAVYYCNADGWNTYIGPRRYRYDYWGQGTQVTVSS | low polyreactivity
QVQLVESGGGLVQAGGSLRLSCAASGSIFVPYAMGWYRQAPGKERELVAAITRSSGSTYYADSVKGRFTISRDNAKNTVYLQMNSLKPEDTAVYYCAADFLLEFDYWGQGTQVTVSS | low polyreactivity
QVQLVESGGGLVQAGGSLRLSCASSGFTFYTNDMGWDRQAPGKERELVAAITWSGGSTYYADSVKGRFTISRDNAKNTVYFQMNSLKPEDTAVYYCAASIGQVTQRRYGTRYYYWGQGTQVTVSS | high polyreactivity
QVQLVESGGGLVQAGGSLRLSCAASGSIFGFYAMGWYRQAPGKERELVAAIRYTGGSTYYADSVKGRFTISRDNAKNTVYLQMNSLKPEDTAVYYCNARTFRRYVSYSRTYVGYDYWGQGTQVTVSS | high polyreactivity
QVQLVESGGGLVQAGGSLRVSCAASGLTFRFYAMGWYRQAPGKERELVAAISTSGGSTYYADSVKGRFTISRDNAMNTVYLQMNSLKPEDTAVYYCAARARYYHSRYDYWGQGTQVTVSS | high polyreactivity

Sequence | polyreactivity (PSR sort gate)
QVQLVESGGGLVQAGGSLRLSCAASGFTFYYYAMGWYRQAPGKERELVAAISSSGGSTSYADSVKGRFTISRDNAKNTVYLQMNSLKPEDTAVYYCAAVYWQSGRGKMCYWGQGTQVTVSS | high polyreactivity
QVQLVESGGGLVQAGGSLRLSCAASGRIFAFYAMGWYRQAPGKERELVAAISWSGGSTYFADSVKGRFTISRDNAKNTVYLQMHSLIPEDTAVYYCAAYRTRGSAYPYDYWGQGTQVTVSS | high polyreactivity
QVQLVESGVGLVQAGGSLRLSCAASGSIFGRNAMGWYRQAPGKERELVARISYIGGSTYYADSVKGRFTISRDNEKNTVYLQMNSLKPEDTSVYYCAKRYGFGYKRMDYWGQGTQVTVSS | low polyreactivity
QVQLVESGGGLVQAGGSLRLSCAASGRTFHIYAMGWYRQAPGKERELVAAIRGRSGSTYYADSVKGRFTISRDNAKNTVYLQMNSLKPEDTAVYYCAAEYWGRYGAPEYDYWGQGTQVTVSS | high polyreactivity
QVQLVESGGGLVQAGGSLRLSCAASASINSNYVMGWNRQAPGKERELVAAITRRGGRTYYADSVKGRFTISRDNAKNTVYLQMNSLKPEDTAVYYCAAERYPEAGSPYGTAEMDYWGQGTQVPVSS | low polyreactivity
QVQLVESGGGLVQAGGSLRLSCAASGITFDYYAMGWYRQEPGKERELVAAISSAGRTYYADSVKGRFTISRDNAKNTVYLQMNSLKPEDTAVYYCAATAFSYYPYHGDYWGQGTQVTVSS | high polyreactivity
QVLLVESGGGLVQAGGSLRLSCAATGSTFIRNAMGWYSQAPGKERELVAVISSGGSTYYADSVKGRFTISREIAKNTVYLQMNSLKPEDTAVYYCPAGDPQKEDYWGQGTQVTVSS | low polyreactivity
QVQLVESGGGIVQAGGSLRLSCAASGSIFARYAMGWSRPAPGKERELVAAISGRGGSTYYADSVKGRFTISRDHATNTDYLQMNSLKPEDTAVYYWNAVWDDYGFYSPYVVVEYDYWGQGTQVTVSS | high polyreactivity
QVQLVESVGGLVQAGGSLRLSCAASGSTSSYYTMGWYRQAPGKERELVAYADSVKGRFTISRDNAKNTVYLQMNSLKPEDTAVYYCAAPRTYYSELTSPYDYWGQGTQVTVSS | low polyreactivity
QVQLVESGGGLVQAGGSLRLSSAASGRIFYGYAMGWYRQAPGKERELVAAISWSGGSTYYADSVKWRFTISRDNAKNTVYLQMNSLKPEDTAVYYCARRDRGGYKYDYWGQGTQVTVSS | high polyreactivity
QVQLVESGGGLVQAGGSLRLSCAASGSTSVQYAMGWYRQAPGKERELVAAIDRSGGSTSYADSVKGRFTISRDNAKNTVYLQMNSLKPEDTAVYYCNADPVRSTYSYDYWGQGTQVTVSS | low polyreactivity
QVQLVESGGGLVQAGGSLRLSCAASVYTFSKNTMGWYRQAPGKEREFVAAINWSGGSTYYADSVKGRFTISRDNAKNTVYLQMNSLKPEDTAVYYFAARRGGRRGYDYWGQGTQVTVSS | high polyreactivity
QVQLVESGGGLVQAGGSLRLSCAASGRTFSQYAMGWYRQAPGKERELVAAISRGGGSTYYADSVKGRFTISRDNAKNTVYLQMNSLKPEDTAVYYCARATYFYYPFGSWGQGTQVTVSS | high polyreactivity
QVQLVESGGGLVQAGGSLRLSCAASGSISYTYAMGWYRQAPGKERELVAAISYSDGITYYADSVKGRFTISRDIAKNTVYLQMNSLKPEDTAVYYCAVEGVYPYYDQSEYDYWGQGTQVTVSS | high polyreactivity
QVQLVESGGGLVQAGGSLRLSCAASGNTFRIYTMGWYRQAPGKERELVATITRRGGSTYYADSVKGRFTISRDNAKNTVYLQMNSLKPEDTAVYYCAARVRGTGVYGGYNYWGQGTQVTVSS | high polyreactivity
QVKLVESGGGLVQAGGSLRLSCAASGRICGYYAMGWYRQAPGNERELVAAISWSGGSTYYADSVKGRFTISRDNAMNTVYLQRNSLKPEDTAVYYCNARYPNTRKYDYWGQVTQVTVSS | high polyreactivity
QVQLVESGGGLVQAGGSLRLSCAASGSILGYYAMRWYRQAPGKERELVAAITASGGSTYYADSVKGRFTISRDNAKNTVYLQMNSLKPEDTAAYYCAAQYYATYGYWGQGTQVTVSS | low polyreactivity
QVQLVESGGGLVQAGGSLRLRCAASGRIFDANAMGWYRQAPGKERELVAAITSRGGTTFYADSVKGRFTISRDNEKNTDYLQMNSLKPEDTAVYYCAADRYYFYRRYDYWGQGTQVTVSS | high polyreactivity
QVQLVESGGGLVQAGGSLRLSCAASGRTFGRYAKGWYRQAPGKERELVATITSGGSTNYADSVKGRFTISRDNAKNTVYLQMNSLKPEDTAVYYCAAEFSPSRWAYSEGALRYNYWGQGTQVTVSS | low polyreactivity
QVQLVESGGALVQAGGSLRLSCAASGFIFPYYAMGWYRQAPGKERELVAAITFSATRTYYADSVKGRFTISRDNAKNTVYLQMNSLKPEDTAVYYCAVGSASSGYEYDYWGQGTQVTVSS | low polyreactivity
QVQLVESGGGLVQAGGSLRLSCPAYGSIFEGHGMGWYRQAPGKEREMVAAITFRSGSTYYADSVKWRFTISRDNAKNTVYLQINSLKPDDTAVYYCAADEYYQVSAYDYWGQGTQVTVSS | low polyreactivity
